Laboratory results as given in article PMC11303214.

Assays:
Experiment in all cases: SEC; Superdex200 column, PBS buffer pH 7.4, after nickel affinity chromatography
[1] = target: SsA1 (R-1b variant with the V157C-N183C disulfide) (respiratory syncytial virus (RSV) | bacteriophage T4) (UniProt P03420)
[2] = target: SsA2 (R-1b variant with the A55C-L188C disulfide) (respiratory syncytial virus (RSV) | bacteriophage T4) (UniProt P03420)
[3] = target: SsB1 (R-1b variant with the S443C-S466C disulfide) (respiratory syncytial virus (RSV) | bacteriophage T4) (UniProt P03420)

Substance “SsA1 (R-1b variant with the V157C-N183C disulfide) (from UniProt P03420 26-105; P03420 137-513)” has a stoichiometry N [1] of 3.
“SsA2 (R-1b variant with the A55C-L188C disulfide) (from UniProt P03420 26-105; P03420 137-513)” was tested, and the stoichiometry N [2] was 3.
Work on “SsB1 (R-1b variant with the S443C-S466C disulfide) (from UniProt P03420 26-105; P03420 137-513)” yielded a stoichiometry N [3] of 3.
